Experimental data from patent US20250333486A1, “Anti-HSP90 alpha antibody and uses thereof” (NATIONAL HEALTH RESEARCH INSTITUTES, priority 2021, published 2025).

What was measured:
[1] = test system: K-Ras^G12D-induced PDAC in LSL-KrasG12D/Pdx1-Cre mice; assay: Therapeutic efficacy in K-Ras^G12D-induced desmoplastic mouse PDAC model; type: in vivo
Procedure: Mouse experiments were performed with the permission of the Institutional Animal Care and Use Committee of National Health Research Institutes (NHRI-IACUC-106031-A, 109022-M2-S02, and 109196-A). To establish a desmoplastic tumor transplant model, C57BL/6 mice at 12 weeks of age were subcutaneously inoculated with a mix of Panc 02 cells and EndoMT-derived CAFs (i.e. OPN-treated 3B-11 cells). See Fan C S, Chen L L, Hsu T A, et al. Endothelial-mesenchymal transition harnesses HSP90α-secreting M2-macrophages to exacerbate pancreatic ductal adenocarcinoma. J Hematol Oncol 2019;12:138; and Chua K V, Fan C S, Chen L L, Chen C C, Hsieh S C, Huang T S. Octyl gallate induces pancreatic ductal adenocarcinoma cell apoptosis and suppresses endothelial-mesenchymal transition-promoted M2-macrophages, HSP90α secretion, and tumor growth. Cells 2020;9(1):91. Sizes of developing tumors were superficially measured with a Vernier caliper, and tumor volumes were calculated with the formula ½×length×width^2. Real tumors were weighed when mice were sacrificed. To establish a desmoplastic tumor transplant model in humanized mice, NOD-SCID IL2R^null (ASID) mice transplanted with human hematopoietic stem cells (hHSC) were subcutaneously inoculated with a mix of PANC-1 cells and OPN-treated HUVECs. The employed hHSC-transplanted ASID mice were produced from the National Laboratory Animal Center (Taipei, Taiwan) and all contained human CD45^+ cell levels more than 38% of total lymphocytes. To establish an M2-macrophage-exacerbated mouse PDAC model, C57BL/6 mice were subcutaneously inoculated with a mix of Panc 02 cells and rHSP90α-treated BMDMs. Additionally, LSL-KrasG12D/Pdx1-Cre transgenic mice were adopted as a spontaneously PDAC-developing mouse model to evaluate the therapeutic efficacy of HH01 antibody. LSL-KrasG12D and Pdx1-Cre breeder mice were obtained from the Mouse Models of Human Cancers Consortium Repository of the National Cancer Institute (Frederick, Maryland, USA). LSL-KrasG12D mice were crossed with Pdx1-Cre mice to generate LSL-KrasG12D/Pdx1-Cre mice.
For assaying the HSP90α-binding activities of the prepared antibodies, 96-well plates were coated with 12.5 ng/ml of rHSP90α in the capture buffer (BioLegend, San Diego, CA, USA) by overnight incubation at 4° C. The coated plates were washed twice with PBST and then blocked with PBST plus 3% bovine serum albumin (BSA). The prepared antibodies were applied and incubated 2 h at room temperature. After three washes with PBST, horseradish peroxidase-conjugated secondary antibody was added and incubated at 37° C. for another 1 h. After three washes, 0.3 mg/ml of 3,3′,5,5′-tetramethylbenzidine in 0.015% H2O2 was added into each well and incubated in the dark at room temperature for 10 min. The reactions were stopped by the addition of 0.5 M H2SO4, and OD450 values were measured by an Infinite M200 microplate reader (TECAN, Männedorf, Switzerland). Additionally, the immunoglobulin (IgG) isotype characterization of anti-HSP90α antibodies was performed by using the Mouse Ig Isotyping ELISA Ready-Set-Go!™ Kit (eBioscience™, Thermo Fisher Scientific, Waltham, MA, USA). The ELISA protocol was also used to assay the secreted HSP90α levels of mouse serum samples as described previously. See Chen J S, Hsu Y M, Chen C C, Chen L L, Lee C C, Huang T S. Secreted heat shock protein 90α induces colorectal cancer cell invasion through CD91/LRP-1 and NF-κB-mediated integrin αV expression. J Biol Chem 2010;285(33):25458-66.
Mouse paraffin-embedded tissue sections were deparaffinized by xylene and rehydrated by a series of ethanol dilutions. Masson trichrome staining was performed using a Trichrome Stain Kit (ScyTek Laboratories Inc., Utah, USA) according to the manufacturer's protocol. The stained sections were dehydrated in graded ethanol solutions and xylene, and finally mounted with mounting solution overnight in the dark at room temperature. […]

[2] = test system: SW620 and PANC-1 cells; assay: Transwell invasion assay, rHSP90α-induced cancer cell invasion; type: cell-based, human; settings: conclusion statement
Procedure: In a 37° C. and 5% CO2 humidified incubator, cancer cells were subjected to serum starvation in 0.5% FBS-containing medium for 16 h, and then added with PBS or 15 μg/ml of rHSP90α in the absence or presence of 10 μg/ml of control IgG or the tested anti-HSP90α antibody. After another 24 h, the treated cells were harvested as aliquots (1×10^5 cells per aliquot) in 0.5% FBS-containing culture medium, and then each aliquot was seeded into a top chamber of Transwell inserts pre-coated with 5-fold diluted Matrigel (BD Biosciences). Cells were allowed 16 h to invade through the Matrigel toward the bottom chambers containing culture medium plus 10% FBS. The filters of the Transwell inserts were then fixed and stained with Giemsa. Invasive cells on the lower side of filters were photographed using the Axiovert S100/AxioCam HR microscope system (Carl Zeiss, Oberkochen, Germany) and further quantified by the Image-Pro Plus software (Media Cybernetics, Inc., Silver Spring, MD, USA).

B1: HH01: humanized anti-HSP90α IgG1 antibody, mutant of Clone-2-chimera; VH SEQ ID NO: 12, VL SEQ ID NO: 17 (antibody, V domains shown)
VH: EVQLVESGGGLVQPGGSLRLSCAASGFTFKTYAMNWVRQAPGQGLEWVARIRSKSRNYATYYADSVKDRFTISRDDSKNQFYLQMNNLRTEDTAVYYCVVGGSGFDYWGQGTTLTVSS
VL: DVVMTQTPLSLPVSLGDQASISCRSSQSIVHSNGNTYLEWYLQKPGQSPQLLIYKVSNRFSGVPDRFSGSGSGTDFTLTISSVEAEDLGVYYCFQGSHVPWTFGGGTKLEIK
modifications: Heavy chain variable region; Light chain variable region
mice still surviving on Day-450 ([1]; 5 mg/kg IV, 10-dose schedule from 6 months of age): 7 of 9
median survival time ([1]; 5 mg/kg IV, 10-dose schedule, Kaplan-Meier, end point Day-450): > 450 days
liver desmoplasia ([1]; Masson trichrome staining): significant improvement
elevation of serum HSP90α levels ([1]; after vs. before treatments): effectively abolished
pancreatic desmoplasia ([1]; mice still surviving on Day-450): drastically recovered
tumor nodules on livers ([1]; one mouse per group): fewer nodules than IgG-treated mouse
invasive activities of pancreatic adenocarcinoma and colorectal cancer cell lines [2]: potently suppresses
